For data set [1], the target named is T1, His6-ParB (Myxococcus xanthus DK1622, UniProt Q1CVJ4 1-296).
T1 sequence: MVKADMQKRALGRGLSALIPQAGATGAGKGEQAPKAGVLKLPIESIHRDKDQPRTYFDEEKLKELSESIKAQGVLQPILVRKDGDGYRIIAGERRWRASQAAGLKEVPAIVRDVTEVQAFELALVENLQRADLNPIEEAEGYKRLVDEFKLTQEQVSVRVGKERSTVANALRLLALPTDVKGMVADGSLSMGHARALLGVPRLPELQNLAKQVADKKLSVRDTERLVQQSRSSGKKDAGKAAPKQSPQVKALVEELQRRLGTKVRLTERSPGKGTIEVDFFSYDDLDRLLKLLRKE
Description: EMSA; 100 nM DNA, 0.1-6 uM His6-ParB, 5 uM pBluescript II SK- competitor, 5 mM Mg2+; 38 mM Hepes/NaOH pH 7.2, 38 mM NaCl, 5 mM MgCl2, 7% glycerol, 1 mM beta-mercaptoethanol, 20 min at 30 C; 6% PAGE at 4 C in 1xTBE + 5 mM MgCl2. Conditions: protein: recombinant; tags: N-terminal His6 (pET45b+); chain copies: 2; blunt. A general note: A gel shift assay detects complexes by their altered migration in electrophoresis.

Data set [2] addresses T1, His6-ParB. The description is as above. The conditions noted are these: protein: recombinant; tags: N-terminal His6 (pET45b+); chain copies: 2; blunt. This is another data set of the same source.

Data on 2 molecules can be found in paper PMC3778016, “Tracking of Chromosome and Replisome Dynamics in Myxococcus xanthus Reveals a Novel Chromosome Arrangement”.

B1: HEX-parS consensus (dsDNA)
DNA 1: GAGGCTTGTTCCACGTGGAACGTCGG
DNA 2: CCGACGTTCCACGTGGAACAAGCCTC
B1: the binding result with His6-ParB [1] is recorded as “binds”.

B2: HEX-parSmut (dsDNA)
DNA 1: GAGGCTTGCCCCACGTGGAACGTCGG
DNA 2: CCGACGTTCCACGTGGGGCAAGCCTC
With B2, in the data set with His6-ParB [2], the binding signal was ~10 fold reduced affinity vs N1.
